Results from the nanobody polyreactivity screen of Harvey et al. (2022).

Test: yeast display, Sf9 membrane polyspecificity reagent, FACS + sequencing; frameworks hold sequencing errors
Procedure, shortened: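 Sorting gates, low and high (top ~1%), were placed on anti-HA fluorescence to track expression and on streptavidin fluorescence to track reagent binding. A clone's polyreactivity label is taken from the gate it came out of. The reagent was 10% biotinylated, detergent-solubilized Sf9 membrane, applied for 1 hour at 4 °C to galactose-induced yeast display cells.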

Sequence	polyreactivity (PSR sort gate)
QVQLVESGGGLVQAGGSLRLSCAASGIIFRYYVMGWYRQAPGKERELVADITSGGSTYYADSVKGRFTISRDNEKNTVYLQMNSLKPEDTAVYYCAADYQYDWFYYWGQGTQVTVSS	high polyreactivity
QVQLVESGGGLVQAGGSLRLSCAASGIIFSAYAMGCYRQAPGKESELVAAISSTGGSTYYADSVKGRFTISRDNAKNTVYLQMNSLKPEDTADYYCATAFTPSKLSRMGYWGQGTQVTVSS	high polyreactivity
QVQLVESGGGLVQAGGSLRLSCAASGIIFSFYAMGWYRQAPWKERELVAAISSGGNTNYADSVNGRFTISRDNAKNTVYLQMNSLKPEDTAVYYCAAGYYIWSTYDYWGQGTQVTVSS	low polyreactivity
QVQLVESGGGLVQAGGSLRLSCAASGIIFSGYAMGWYRQAPGKERELVASIRSGSNTYYADSVKGRFRISRDNAKNTVYLQMNSLKPEDTAVYYCAARVVPATFRFIRYPHPYYYWGQGTQVTVSS	low polyreactivity
QVQLVESGGGLVQAGGSLRLSCAASGIIFSHNVMGWYRQAPGKERELVAAITYSGGSTYYADSVKGRFTISRDNAKNTVYLQMNSMKPEDTAVYYCNAVTYSSPYRFDYWGQGTQVTVSS	low polyreactivity
QVQLVESGGGLVQAGGSLRLSCAASGIIFSIYAMGWSRQAPGKERELVAAISGRGGRTYYADSVKGRFTMSRDNAKNTVYLQMNSLKPEDTAVYFCAAGAHAYAHYSWFYFRMHYWGQGTQVTVSS	low polyreactivity
QVQLVESGGGLVQAGGSLRLSCAASGIIFSKNAMGWYRQAPGKERELVATINRSGGSTYADSVKGRFTISRDNAKNTVYLQMNSLKPEDTAVYYCAKRASPFWRGYDSWGQGTQVTVSS	low polyreactivity
QVQLVESGGGLVQAGGSLRLSCAASGIIFSPYAMGWYRQAPGKERELVAAITNNGGGTYYADSVKGRFTISRDNAKNTVYLQMNSLKPEDTAVYYCAAEGFLEYPYYIWYDYWGQGTQVTVSS	high polyreactivity
QVQLVESGGGLVQAGGSLRLSCAASGIIFSSNAMGWYRQAPGKERELVAAISRSGGSTYYADSVKARFTISRDNAKKTVYLQMNSLKPEDTAVYDCAAVYRRGHEYDYWRQGTQVTVSS	high polyreactivity
QVQLVESGGGLVQAGGSLRLSCAASGIIFSTYAMGWYRHAPWKERELVAAITRGDSTNYADSVKGRFTISRDNAKNTVYLQMNSLKPEDTAVYYCAVDKRYGRVVGRDYDYWGQGTQVTVSS	high polyreactivity
QVQLVESGGGLVQAGGSLRLSCAASGIIFSVYAMGWYRQAPGTERELVAAISGSGGSTYYADSVKGRFTISRDNAKNTVYLQMNSLKPEDTAVYYCAARKKWSIRSDYWGQGTQVTVSS	high polyreactivity
QVQLVESGGGLVQAGGSLRLSCAASGIIFSYNVMGWYRQAPGTERELVAGISRSGGSTYYADSVKGRFTISRDNAKNTVYLQMNSLKPEDTAVYYCNRVSYGPYYSYWSDFGYWGQGTQVTVSS	high polyreactivity
QVQLVESGGGLVQAGGSLRLSCAASGIIFSYYAMGWYIQAPGKERELVAAISSSGVSTNYADSVKGRFTISRDNAKNTVYLQMNSLKPEDTAVYYCNARGYYWYRPYVNSNGGYWGQGTQVTVSS	high polyreactivity
QVQLVESGGGLVQAGGSLRLSCAASGIIFSYYPMGRYRQAPGIERELVAAISRSGGNTYYADSVKGRFTISRDNAKNTVYVQMNSLKPEDTAVYYCAVGWYDDYYYGYDYWGQGTQVTVSS	high polyreactivity
QVQLVESGGGLVQAGGSLRLSCAASGIIFTANVMGWYRHAPGKERELDAVISLSGGITFYADSVKGRFTISRDNAKNTVYLQMNSLKPEDTAVYYCAAEPWYSWKTEEDYWGQGTQVTVTS	low polyreactivity
QVQLVESGGGLVQAGGSLRLSCAASGIIFTDYAMGWDRQAPGKERELVAAISSGGGSTYYADSVKGRFTISRDNAKNTVYIQLNSQKPEDTAVYYCAAEGYLISGACDYLYDYYWGQGTQVTVSS	high polyreactivity

Sequence	polyreactivity (PSR sort gate)
QVQLVESGGGLVQAGGSLRLSCAASGIIFTGYAMGWYRQAPGKERELVAAISDTGGSTYYADSVKGRFTISRDNAKNTVYLQMNSLKPEDTAVYYCAADWWSRYYYWGQGTQVTVSS	high polyreactivity
QVQLVESGGGLVQAGGSLRLSCAASGIIFTLYAMGWYRQAPGKERELVATISTGGGTYYADSVKGRFTISRDNAKNTVYLQMNSLKPEDTAVYYCNAVKLLGTRGYGYWGQGTQVTVSS	high polyreactivity
QVQLVESGGGLVQAGGSLRLSCAASGIIFTSNTMGWYRQAPGKEREFVASINWNGSSTYADSVKGRFTISRDNAKNTVYLQMNSMKPEDTAVYYCNADYNRNSVQFSLYDYWGQGTQVTVSS	low polyreactivity
QVQLVESGGGLVQAGGSLRLSCAASGIIFTTYVMGWYRHAPGTESELVAAISRGGRTYYADSVKGRFTLSRDNAKHTVYLQMNSLKPEDTAVYYCARVAYKGYGEDDYWGQGTQVTVSS	high polyreactivity
QVQLVESGGGLVQAGGSLRLSCAASGIIFTYAMGWYRQAPGKERELVAAIDWRGGRTYYADSVKGRFTISRDNAKNTVYLQMNSLKPEDTAVYYCAARLPGGTYYWGQGTQVTVSS	high polyreactivity
QVQLVESGGGLVQAGGSLRLSCAASGIIFVKNAMGWYRQAPGKVRELVAAISRSGARTYYADSVKGRFTISRDNAKNTVYLLMNSLKPEDSAVYYCNKVVRYGHTRKIDTESDYWGQGTQVTVSS	high polyreactivity
QVQLVESGGGLVQAGGSLRLSCAASGIIFVKYAMGWYRQAPGKERELVAAITSGGSTYYADSVKGRFTISRDNAKNTVYLQMNSLKPDDTAVYYCNADSWFLYYFTINGYWGQGTQVTVSS	high polyreactivity
QVQLVESGGGLVQAGGSLRLSCAASGIIFVPYAMGWYRQAPGKERELVAANNSGGNTYYADSVKGRFTISRDNAKNTVYLLIYSLKPEDTAVYYCGAYSKYPVFDYNYWGQGTQVTVSS	high polyreactivity
QVQLVESGGGLVQAGGSLRLSCAASGIIFVRNAMGWYRKAPGKERELVAAISRSGGSTYYADSVKWRFTISRDNAKNTVYLQMNSLKPEDTAVYYCAAVLRLSSGYDYWGQGTQVTVSS	high polyreactivity
QVQLVESGGGLVQAGGSLRLSCAASGIIFVRYAMGWYIQAPGKERELVAAINSRGNTYYADSVKGRFTISRDNAKNSVYLQMNSLKPEDTAVYYCAKYNSWGQGTQVTVSS	high polyreactivity
QVQLVESGGGLVQAGGSLRLSCAASGIIFVSYDMGWYRQAPGKERELVAAINRGGRTYYADSVKGRFTISRDNAKNTVYLQMNSLKAEDTAVYYCAAQFHFRPFSLTYDYWGQGTQLTVSS	high polyreactivity
QVQLVESGGGLVQAGGSLRLSCAASGIIFVWYTMGWYRQAPGKERELVAAIDSIGDGTYYADSVKGRFTISRDNAKNTVYLQMNSLKPEDTAVYYCAVDDYYEMDYWGQGTQVTVSS	low polyreactivity
QVQLVESGGGLVQAGGSLRLSCAASGIIFVYYTMGWYRQAPGKERELVAAITSGGSTYYADSVKGRFTISRDNAKNTVYLQMNSLKPEDTAVYYCAAVGRPPYAGDRGYWGQGTQVTVSS	high polyreactivity
QVQLVESGGGLVQAGGSLRLSCAASGIIFWWYAMGWYRQAPGKERELVAAISGTGGSTYYADSVKGRFTISRDNAKNTVYLQMNSLKPEDTAVYYCAKRASPFWRGYDSWGQGTQVTVSS	low polyreactivity
QVQLVESGGGLVQAGGSLRLSCAASGIIFYANVMGLYRQAPGKERELVAGISRNGGRTYYADSVKGRFTISRDNAKNTVYLQMNSLKPADTAVYYCAALGSYTSIFDYWGQGTQVTVSS	high polyreactivity
QVQLVESGGGLVQAGGSLRLSCAASGIIFYDYAMGWYRQAPGKERELVAAITSGGSTNYADSVKGRFTISRDNAKNTVYLQMNSLKPEDTAVYYCAATYWSWIPLRFYRGQGTQVTVSS	low polyreactivity
